Assay results from the DeepSol protein solubility set.

experiment: soluble on expression in E. coli; label from the status in PepcDB or PDB records

Sequence | soluble on expression in E. coli
MSDICVIIAAYNAEATIAQAVTSALAEAEVAEVVVVDDASSDATAEAALAASDGSGRLIVERQAQNGGPSAARNRAVALSQAPRIAILDADDFFLPGRFARLDPDLDLAADNIVFVTPEHAARLDPTNLPAAPREVEMLDAERFALGNLAQGVHRGELGFLKPVMSRAFLTRHGLRYDERMWLGEDFDLYMRMLLLGARFGLTRAVGYAAVQRGASLSGRHRTADLAALEACCRAHLEMPASPATQEAMRRHLRQVQAKLLLRQFLDRKAEAGLGAALGFALAPPARFLPIAKGVARDKIAALRPPAPPRAERFLLPVLEHHHHHH | not soluble
MGSDKIHHHHHHMQPSATDSTISAGTQPHIVYSERASAPGPLLVFIPGTGGKTPKTAETEQAFIGTALAHGYRVIILSYIDTPAIAQVCTKRVLANDPACAEQVRQKRAFGDDTTARIDDAPQDAIVHRLNALIRYLAAHNAGDHWEQYLAGERLNWRAIVLSGQSQGGGMAAYIAKRIAIRGVIDFSGGWDMRSDSDIASWYSAPSATPPERWYGTYHADERFASAIAASYRAMNIPVSHQFSLSEPVRHPEGKNPGHGEGASNPVYRGIWETMLTGLE | not soluble
MSLKHMLIAGGGIGGLSAAISLRKAGFSVTLCEAASENRKTGAGILQPQNALAVLKELGVFEDCCKHGFQTEWFKTFDEQGNLLFQVSESFLDDSLPGRNNILRKTLNDILMKHAEAVGVDIKWGKKVVAYEETAESVTALCEDGEKMQADILAGFDGIHSVVRDKMLQKETEKEHLGMGAWRFYIELPDYTFEDATFMYRSGDTQIGVVPLAQHAGYVFVLQPCTSDYWDEEDTRFDRVKEILSGFRGLDFVTKHMSKQHPVIFNKLEQVAVQEPWHKGRVIIGGDAAHAGAPTLAQGAAMAIEDAIVLAEELQNHADHETALQAYYKRRAPRALKVQNLSSEIVRRRLKGEPGAEELIGECYAVLREGYEGGSHHHHHH | soluble
GMSPTVLPATQADFPKIVDVLVEAFANDPTFLRWIPQPDPGSAKLRALFELQIEKQYAVAGNIDVARDSEGEIVGVALWDRPDGNHSAKDQAAMLPRLVSIFGIKAAQVAWTDLSSARFHPKFPHWYLYTVATSSSARGTGVGSALLNHGIARAGDEAIYLEATSTRAAQLYNRLGFVPLGYIPSDDDGTPELAMWKPPAMPTV | soluble
MGSDKIHHHHHHMKLRILSDLHIEHAMPQAVPACDADIVILAGDIANGRDGIDWAARTFGQPLIYVPGNHEYYEGNVDAVDRLMADAAATHPGVHLLNGAVAEFSGASGRVRVLGTTWWTDYCLFGTDRREASMQACSAVMLDHRLIELNGDDGHLRHFSPEDALARHHIASAWLAGQLALPFDGKTVVVTHHGPDLGSLDPRYSHDLVSGGFLSRRPDLVAQADLWIHGHTHTSFDYCIDTSRVVCNPRGYVSRRTGELENSRFDWCCVVEI | not soluble
MSSQNANLMREVRLFENHSEREQMENLSELFAVLNALEHLEKMFSRDHVSADEYKSECFKLIDQYKVTMRLVHGATSIEDFAKKYRLHCPAAIERIREGRPITVKDDQGNVLKHIASIVEQFITFLDALRLNTRAVDDLYPGLDDLYNAINTTSRVPIDAIVTTKVKKWHDRLSSMAASDEISDEDARQMIFDVESAYQAFNKALNELKH | soluble
EKATENSPLVMIEYSSPNTNKPLHLGHVRNNLLGNALANVMAANGNKVVKTNIVNDRGIHICKSMLAWLKYGNGETPESSGKKGDHLIGDYYVAFDKHYKAEVKELTAQYQAEGLNEEEAKAKAEANSPLMLEAREMLRKWEANDPEIRALWKKMNDWVYAGFDETYKMMGVSFDKIYYESNTYLEGKEKVMEGLEKGFFYRKEDNSVWADLTAEGLDHKLLLRGDGTSVYMTQDIGTAKLRFQDYPINKMIYVVGNEQNYHFQVLSILLDKLGFEWGKGLVHFSYGMVELPEGKMKSREGTVVDADDLMEAMIETAKETSAELGKLDGLTQEEADNIARIVGLGALKYFILKVDARKNMTFNPKESIDFN | not soluble
MRIALIIFPIHASHGCILQTYALYRTLRKLGHDVSIIDRQWDKLSLKNQLVYAVKSLIISIKRKCIRPLTIEGTRKIIMSELQTFVDKHLSNRKIYFRTPRYEELPHYDAFIVGSDQTWRPKYVSDILYYYLCFVPAEEKVKRIAYAPSFGTEEWEYSEQQTLQCRELVSRFDAIAVREDSGAKLCGKYLGINVEHVLDPTMLLNKEDYLSETGIMPSEQNRLSYYLLDNSKSKMQIVEEICKELHLTVQRINTETENHKAGIKERVAPSIEKWIEGFVNSKFIVADSFHATVFAIIFNKHFITIANKDRGIARFESLLKMFGLENRLITDIRQVTPELVHESIDWGKVNQTMWAKQSSSLDYLKFNLGNI | not soluble
MKTIIFALNDHSPKYKQIYEKLKSLIERGDIQANEPLPSIRQLAESLNVSRNTTLMAYEQLAAEGYIRAEKRKGYFANEVEPLFIPKARISARQPAREAAAPVVVDFARRCR | not soluble
SRVFLDHNALPDTLKVTYDSFCSNGVTHRNQPRGDCDGVQINVPITFQVKVTATECIQEQSFVIRALGFTDIVTVQVLPQCECRCRDQSRDRSLCHGKGFLECGICRCDTGYIGKNCEHH | soluble
MTTNRETVLSMAKRKRSVVAINASGWRSNGEVMGLQIKDGVLYKDYDAAGYTGAEACVFFDDGTMKVYGNREVDADILISKGARNSFAFGIWLVKDSKPRTAQMTTWADLNVKHPRQAIGQRSDGTLVIITVDGRSLRSSGITAYDMPSLFLSEGCINAFLLDGGGSSQTAVEGKYINNISDGIERAVVDTLTISYPDDLEHHHHHH | not soluble
MSLVPRVMSTQHPDNARIPFFAASEVLNGEDEVREAYYVFSHFKCDEQMWDFEGKEADAHIVRKLLSSYYDFFSSRPLGKDFRLTMRVPNPEIEKGEAKLLAETLEMIPRSYDYVRSLGIEHPPIFEVILPMTRSAEEVMKVHAFYRDFVAGKGRFELLGEKVSDWLGDFLPEEIKVIPLFEDRDSLMRAAEISERYAEWAELDELRVFLARSDPAMNYGFVAATIYVKKALYDLSQLGISTYPILGVGSCPFRGGFSPKNLSVLDEFPSVYTFTVQSAFKYDYEFGDVRRAIKRAKEAARRKSDYVDEEHLQVAEKLKDGYRRRIAKIAEIVNRISSRIPRRRMRKLHVGLFGYSRGEEIKLPRAITFCASLYSIGLPSEIIGIAEMSDKDYEAVCEVFKNFDGMMESAMSLFNPESLKIVDLSMDFERAKELFGYEPDERHLEKTNEIIKQIDGDIKNLVVEAGILRGFLGEGHHHHHH | not soluble
MSLSVPAAAPEDSVISAEETTTGSAVTNVQFSNEQVITENGKYKVSKLAPSLSFLPSNVELCCSVDAKSGYALCCDTDNVYVWPFLSSETHPSFVRIPLHDEEYESWSRPPLCCFTWPSVLERDLKSSPGLFLVNSRSGDIQFYEDVDTVSQVASFLTQTKRHKSVLKLRDGEYVENLINAEPAGILLSTNYGRVEFCTIRDANGKPFVSLKQTIIKCQVGIFSSMSKSKRVVSLKLGEISGKGERIVSILTQGGRYQVWNLSSVGNCYKKIDLNVQSEISQAVLEHFPLATSTLKLLDCHPLSGDSDAYLFLSFLAESNETHYLLSTIIVDEDTNSFAIFSTYRLNTYTRPLSDEFAPRLIVPTAYTKEHLPITSVYTLFSDAAVLTQTSSKLDSNYPFKRKWEDIIRFNKDMKVLGYDCNSSSLYITDGRTCALKLETFEKYENSDFQEIRFIKSHVDQYVYFGGQSTDEGHHHHHH | soluble
MLSYRHSFHAGNHADVLKHTVQSLIIESLKEKDKPFLYLDTHAGAGRYQLGSEHAERTGEYLEGIARIWQQDDLPAELEAYINVVKHFNRSGQLRYYPGSPLIARQLLREQDSLQLTELHPSDYPLLRSGFQKDSRARVEKADGFQQLKAKLPPVSRRGLILIDPPYEMKTDYQAVVSGIAEGYKRFATGTYALWYPVVLRQQIKRMIHDLEATGIRKILQIELAVLPDSDRRGMTASGMIVINPPWKLEQQMNNVLSWLHSKLVPAGTGHATVSWIVPE | not soluble
MRIGLFTDTYFPQVSGVATSIRTLKTQLEKMGHNVFIFTTTDRDVDRYEDWQIIRIPSVPFFAFKDRRVAYRGFSKALEIAKQYKLDIIHTQTEFSLGLLGIAIAHELKIPVVHTYHTQYEDYVRYIAKGMVIRPSMVKYIVRGFMSDLDGVICPSEIVYDLLLKYKVAAEKRVIPTGIELEKFQRPEITEEDVSDLRAKLGISSDETMLLSLSRVSYEKNIQAVMAALPSVLEEEDKVRLVVAGDGPYLPHLKSQAKKLGIEDKVVFTGMIAPGETALYYKAADFFISASTSETQGLTYLEALASGTPIIAHGNTYLDNIITDKMFGILYYHDNDLAGAILEAAIVTPEKDETKWAEKLYEISAENFGKRVYEYYLDLTISKDFHNDLNGEDSTMKRLTRMVTHLPTKAITLPVNGSVRIIKGSAKQVKKIRNIKKFLDLEHHHHHH | soluble
MIFKKEPKRYTVEDTIPYLRLLKSGICQLDEKHFSKSIAFQDINYQLALDEDRDLIFNQFANFLNSFDPSISIEFSYVNQLGRNEEMKSAIQIPDKKDGFDDIRFEFREMLKSQIVKGNNGLKKSKYVTFTVEADNLEQATSKLERLEIDILSNLKSMGVRAESLNGEERLKILHDVLNPNKTFEFSYKDLKKRESTKTYIVPDEFNFTPSRYFKFGKFIGATSHFQILASELSDRMLSEFLDIDDNINISFHIRAIDQSEAIKMVKRKNTDIDKMKIEENKKAVRSGYDMDILPSDLITYGEDVKSLLKDLQTRDERMFVVSIVFMNFARTVQKLDNTIAQISSIANKHNCKLKRLDHSQEQGLVSMLPLGVNKIEIDRGLTSSSTAVFMPFTTEELFINSSNSLYYGLNALSHNLIMADRKKLKNPNGLILGTPGSGKSFSAKREMANAILVTDDDVIICDPEGEYGNLVRQFKGEVIKVSSKSKDYLNPLDINMNYGDGDAPLKDKANFIMSMLELVVGGSGLTAEEKSVIDRCLPKIYEKYFEHPTPDNMPILQDLYDMLKGQEEKVGKKLATEMEIYVSGSLNVFNHRSNVDLNKKLLCFDIKELGSQLKKIGMLVIQDQVWNKVSQNRGNKATRYYIDEFHLLLKDEQTASYSVEIWKRFRKWGGIPTGITQNVKDLLMSKEIENIFDNTDFVLMLNQASGDREILARKLKISLPQLRYVTNSNEGEGLLFFGNTIVPFLDKFPKDTILYQKMTTKPEEVRLEHHHHHH | soluble
MSKIADDQNFNDEEENFAKLFKKELEKEETLEKGTIKEGLVVSINENDGYAMVSVGGKTEGRLALNEITDEKGQLLYQKNDPIIVHVSEKGEHPSVSYKKAISQQKIQAKIEELGENYENAIIEGKIVGKNKGGYIVESQGVEYFLSRSHSSLKNDANHIGKRVKACIIRVDKENHSINISRKRFFEVNDKRQLEVSKELLEATEPVLGVVRQITPFGIFVEAKGIEGLVHYSEISHKGPVNPEKYYKEGDEVYVKAIAYDAEKRRLSLSIKATIEDPWEEIQDKLKPGYAIKVVVSNIEHYGVFVDIGNDIEGFLHVSEISWDKNVSHPNNYLSVGQEIDVKIIDIDPKNRRLRVSLKQLTNRPFDVFESKHQVGDVLEGKVATLTDFGAFLNLGGVDGLLHNHDAFWDKDKKCKDHYKIGDVIKVKILKINKKDKKISLSAKHLVTSPTEEFAQKHKTDSVIQGKVVSIKDFGVFINADGIDVLIKNEDLNPLKKDEIKIGQEITCVVVAIEKSNNKVRASVHRLERKKEKEELQAFNTSDDKMTLGDILKEKLLEHHHHHH | soluble
